Experimental findings from patent publication US20250115669A1, “FGFR1/KLB Targeting Agonistic Antigen-Binding Proteins and Conjugates Thereof with GLP-1R Agonistic Peptides” (SANOFI, priority 2020, published 2025) are described below.

First the molecules themselves.
T1: human beta-Klotho (Homo sapiens, UniProt Q86Z14)
T1 sequence (Q86Z14 1-1044): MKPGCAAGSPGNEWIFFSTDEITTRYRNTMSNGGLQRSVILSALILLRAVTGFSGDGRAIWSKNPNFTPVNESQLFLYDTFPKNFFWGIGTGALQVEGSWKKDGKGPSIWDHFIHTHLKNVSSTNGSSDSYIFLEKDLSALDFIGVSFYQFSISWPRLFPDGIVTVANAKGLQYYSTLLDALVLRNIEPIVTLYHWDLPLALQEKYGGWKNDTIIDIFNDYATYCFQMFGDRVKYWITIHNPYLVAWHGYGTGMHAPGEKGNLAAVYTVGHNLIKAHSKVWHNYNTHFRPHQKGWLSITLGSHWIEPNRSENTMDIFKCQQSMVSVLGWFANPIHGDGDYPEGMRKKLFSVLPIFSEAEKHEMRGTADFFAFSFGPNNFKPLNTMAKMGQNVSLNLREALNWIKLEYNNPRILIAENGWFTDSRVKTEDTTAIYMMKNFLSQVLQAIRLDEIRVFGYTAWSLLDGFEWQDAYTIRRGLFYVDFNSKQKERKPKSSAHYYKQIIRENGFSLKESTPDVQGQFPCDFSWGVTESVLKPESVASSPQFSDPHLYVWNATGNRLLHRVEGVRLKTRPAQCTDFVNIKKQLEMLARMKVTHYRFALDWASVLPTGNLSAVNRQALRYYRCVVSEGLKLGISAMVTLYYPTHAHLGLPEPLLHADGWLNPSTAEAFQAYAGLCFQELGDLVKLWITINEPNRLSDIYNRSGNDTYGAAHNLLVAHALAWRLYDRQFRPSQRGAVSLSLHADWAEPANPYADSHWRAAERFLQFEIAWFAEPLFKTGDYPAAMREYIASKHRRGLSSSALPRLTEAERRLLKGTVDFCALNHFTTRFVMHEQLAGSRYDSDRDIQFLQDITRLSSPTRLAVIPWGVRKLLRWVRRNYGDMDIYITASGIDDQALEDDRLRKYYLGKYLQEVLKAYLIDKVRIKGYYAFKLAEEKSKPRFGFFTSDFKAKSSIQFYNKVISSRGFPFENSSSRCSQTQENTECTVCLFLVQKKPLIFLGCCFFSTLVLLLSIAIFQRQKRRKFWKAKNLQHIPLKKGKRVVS

B1: Ab0355: IgG4 PE; 16H7 VL (N25S, D49E, D50Y, D91E, N93S); 16H7 VH (M34V, I83T, D109E) (antibody)
VH: QVTLKESGPVLVKPTETLTLTCTVSGFSLNNARVGVSWIRQPPGKALEWLAHIFSNDEKSYSTSLKSRLTISKDTSKSQVVLTMTNMDPVDTATYYCARSVVTGGYYYEGMDVWGQGTTVTVSS
light: SYVLTQPPSVSVAPGQTARITCGGSNIGSESVHWYQQKPGQAPVLVVYEYSDRPSGIPERFSGSNSGNTATLTISRVEAGDEADYYCQVWEGSSDHVVFGGGTKLTVLGQPKANPTVTLFPPSSEELQANKATLVCLISDFYPGAVTVAWKADGSPVKAGVETTKPSKQSNNKYAASSYLSLTPEQWKSHRSYSCQVTHEGSTVEKTVAPTECS
B2: Ab0357: IgG4 PE; 16H7 VL (N25S, D49E, D50A, D91E, N93S); 16H7 VH (M34V, I83T, D109E) (antibody)
VH: QVTLKESGPVLVKPTETLTLTCTVSGFSLNNARVGVSWIRQPPGKALEWLAHIFSNDEKSYSTSLKSRLTISKDTSKSQVVLTMTNMDPVDTATYYCARSVVTGGYYYEGMDVWGQGTTVTVSS
light: SYVLTQPPSVSVAPGQTARITCGGSNIGSESVHWYQQKPGQAPVLVVYEASDRPSGIPERFSGSNSGNTATLTISRVEAGDEADYYCQVWEGSSDHVVFGGGTKLTVLGQPKANPTVTLFPPSSEELQANKATLVCLISDFYPGAVTVAWKADGSPVKAGVETTKPSKQSNNKYAASSYLSLTPEQWKSHRSYSCQVTHEGSTVEKTVAPTECS
B3: Ab0356: IgG4 PE; 16H7 VL (N25S, D49E, D50A, D91A, N93S); 16H7 VH (M34V, I83T, D109E) (antibody)
VH: QVTLKESGPVLVKPTETLTLTCTVSGFSLNNARVGVSWIRQPPGKALEWLAHIFSNDEKSYSTSLKSRLTISKDTSKSQVVLTMTNMDPVDTATYYCARSVVTGGYYYEGMDVWGQGTTVTVSS
light: SYVLTQPPSVSVAPGQTARITCGGSNIGSESVHWYQQKPGQAPVLVVYEASDRPSGIPERFSGSNSGNTATLTISRVEAGDEADYYCQVWAGSSDHVVFGGGTKLTVLGQPKANPTVTLFPPSSEELQANKATLVCLISDFYPGAVTVAWKADGSPVKAGVETTKPSKQSNNKYAASSYLSLTPEQWKSHRSYSCQVTHEGSTVEKTVAPTECS
B4: Ab0312: IgG4 PE; 16H7 VL (N25S, D49Y, D50E, N93E); 16H7 VH (M34V, I83T, D109E) (antibody)
VH: QVTLKESGPVLVKPTETLTLTCTVSGFSLNNARVGVSWIRQPPGKALEWLAHIFSNDEKSYSTSLKSRLTISKDTSKSQVVLTMTNMDPVDTATYYCARSVVTGGYYYEGMDVWGQGTTVTVSS
light: SYVLTQPPSVSVAPGQTARITCGGSNIGSESVHWYQQKPGQAPVLVVYYESDRPSGIPERFSGSNSGNTATLTISRVEAGDEADYYCQVWDGESDHVVFGGGTKLTVLGQPKANPTVTLFPPSSEELQANKATLVCLISDFYPGAVTVAWKADGSPVKAGVETTKPSKQSNNKYAASSYLSLTPEQWKSHRSYSCQVTHEGSTVEKTVAPTECS
B5: Ab0358: IgG4 PE; 16H7 VL (N25S, D49E, D50A, D91H, N93S); 16H7 VH (M34V, I83T, D109E) (antibody)
VH: QVTLKESGPVLVKPTETLTLTCTVSGFSLNNARVGVSWIRQPPGKALEWLAHIFSNDEKSYSTSLKSRLTISKDTSKSQVVLTMTNMDPVDTATYYCARSVVTGGYYYEGMDVWGQGTTVTVSS
light: SYVLTQPPSVSVAPGQTARITCGGSNIGSESVHWYQQKPGQAPVLVVYEASDRPSGIPERFSGSNSGNTATLTISRVEAGDEADYYCQVWHGSSDHVVFGGGTKLTVLGQPKANPTVTLFPPSSEELQANKATLVCLISDFYPGAVTVAWKADGSPVKAGVETTKPSKQSNNKYAASSYLSLTPEQWKSHRSYSCQVTHEGSTVEKTVAPTECS

The target in the test is T1, human beta-Klotho. The test is described as follows: SPR off-rate screening of antibody mutants (human beta-Klotho captured by anti-His antibody). The test is classed as binding. The settings on record: mean, n=3. The method, boiled down:
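Off-rate (kd) from single exponential fit of dissociation after mutant antibodies (50 nmol/L analyte) bound beta-Klotho held on an anti-His capture surface. Association ran 240 s, dissociation 300 s, with surface regeneration between cycles.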
Turning to B1, the “koff human KLB” value is 0.00195 s⁻¹.

As for B2, the “koff human KLB” value is 0.00185 s⁻¹.

Turning to B3, the “koff human KLB” value is on record as “invalid fit”.

As to B4, the “koff human KLB” value amounted to 0.0005302 s⁻¹.

Take B5: the “koff human KLB” value was found to be 0.0004541 s⁻¹.
